Numbering of substitutions follows the chain as printed. Numbers in names are those of the source.
B1: Id_ii_S4_P5E.2_K5.1_C5.2_[C-2A]_[T-1C]_H5.1_A5.1_F5.1_T5.2_[A12C] (ssRNA)
RNA: UUUGACAACUGAUCGUUCUUUCUACUGUAUUAUUAUCUUCUUUCUCGAUCAGUUGUCUUU
B2: Id_ii_S4_P5E.2_K5.1_C5.2_[C-2A]_H5.1_A5.1_F5.1_T5.2_[T11A]_[A12C] (ssRNA)
RNA: B1 RNA with C25U, U36A
B3: Id_ii_S4_P5E.2_K5.1_C5.2_[C-2A]_H5.1_A5.1_F5.1_T5.2_[A12G] (ssRNA)
RNA: B1 RNA with C25U, C37G
B4: Id_ii_S4_P5E.2_K5.1_C5.2_[T-1G]_H5.1_A5.1_F5.1_T5.2_[T11G]_[A12C] (ssRNA)
RNA: B1 RNA with A24C, C25G, U36G
B5: Id_ii_S4_P5E.2_K5.1_C5.2_[T-1G]_H5.1_A5.1_F5.1_T5.2_[T11G]_[A12T] (ssRNA)
RNA: B1 RNA with A24C, C25G, U36G, C37U
B6: Id_ii_S4_P5E.2_K5.1_C5.2_[T-1C]_H5.1_A5.1_F5.1_T5.2_[A12T] (ssRNA)
RNA: B1 RNA with A24C, C37U
B7: Id_ii_S4_P5E.2_K5.1_C5.2_[T-1A]_H5.1_A5.1_F5.1_T5.2_[T11A]_[A12T] (ssRNA)
RNA: B1 RNA with A24C, C25A, U36A, C37U
B8: Id_ii_S4_P5E.2_K5.1_C5.2_[T-1A]_H5.1_A5.1_F5.1_T5.2_[T11A] (ssRNA)
RNA: B1 RNA with A24C, C25A, U36A, C37A
B9: Id_ii_S4_P5E.2_K5.1_C5.2_[T-1A]_H5.1_A5.1_F5.1_T5.2_[A12T] (ssRNA)
RNA: B1 RNA with A24C, C25A, C37U
B10: Id_ii_S4_P5E.2_K5.1_C5.2_H5.1_A5.1_F5.1_T5.2_[T11A]_[A12C] (ssRNA)
RNA: B1 RNA with A24C, C25U, U36A
B11: Id_ii_S4_P5E.2_K5.1_C5.2_H5.1_A5.1_F5.1_T5.2_[A12C] (ssRNA)
RNA: B1 RNA with A24C, C25U
B12: Id_ii_S4_P5E.3_K5.2_C5.2_[C-2G]_H5.2_A5.1_F5.1_T5.2_[T11G]_[A12T] (ssRNA)
RNA: B1 RNA with A24G, C25U, G27A, U36G, C37U
B13: Id_ii_S4_P5E.3_K5.2_C5.2_[C-2G]_H5.2_A5.1_F5.1_T5.2_[T11C]_[A12G] (ssRNA)
RNA: B1 RNA with A24G, C25U, G27A, U36C, C37G
B14: Id_ii_S4_P5E.3_K5.2_C5.2_[C-2G]_H5.2_A5.1_F5.1_T5.2_[A12T] (ssRNA)
RNA: B1 RNA with A24G, C25U, G27A, C37U
B15: Id_ii_S4_P5E.3_K5.2_C5.2_[C-2T]_[T-1G]_H5.2_A5.1_F5.1_T5.2_[T11G]_[A12C] (ssRNA)
RNA: B1 RNA with A24U, C25G, G27A, U36G
B16: Id_ii_S4_P5E.3_K5.2_C5.2_[C-2T]_[T-1G]_H5.2_A5.1_F5.1_T5.2_[T11G]_[A12T] (ssRNA)
RNA: B1 RNA with A24U, C25G, G27A, U36G, C37U
B17: Id_ii_S4_P5E.3_K5.2_C5.2_[C-2T]_[T-1G]_H5.2_A5.1_F5.1_T5.2_[T11A]_[A12C] (ssRNA)
RNA: B1 RNA with A24U, C25G, G27A, U36A
B18: Id_ii_S4_P5E.3_K5.2_C5.2_[C-2T]_[T-1G]_H5.2_A5.1_F5.1_T5.2_[A12T] (ssRNA)
RNA: B1 RNA with A24U, C25G, G27A, C37U
B19: Id_ii_S4_P5E.3_K5.2_C5.2_[C-2T]_[T-1C]_H5.2_A5.1_F5.1_T5.2_[T11C]_[A12G] (ssRNA)
RNA: B1 RNA with A24U, G27A, U36C, C37G
B20: Id_ii_S4_P5E.3_K5.2_C5.2_[C-2T]_[T-1A]_H5.2_A5.1_F5.1_T5.2_[A12T] (ssRNA)
RNA: B1 RNA with A24U, C25A, G27A, C37U
B21: Id_ii_S4_P5E.3_K5.2_C5.2_[C-2T]_H5.2_A5.1_F5.1_T5.2_[T11G]_[A12C] (ssRNA)
RNA: B1 RNA with A24U, C25U, G27A, U36G
B22: Id_ii_S4_P5E.3_K5.2_C5.2_[C-2T]_H5.2_A5.1_F5.1_T5.2_[T11G]_[A12T] (ssRNA)
RNA: B1 RNA with A24U, C25U, G27A, U36G, C37U
B23: Id_ii_S4_P5E.3_K5.2_C5.2_[C-2A]_[T-1C]_H5.2_A5.1_F5.1_T5.2_[T11C]_[A12G] (ssRNA)
RNA: B1 RNA with G27A, U36C, C37G

Target: T1, PUF4 RNA-binding domain (Saccharomyces cerevisiae, UniProt P25339 537-888)
T1 sequence: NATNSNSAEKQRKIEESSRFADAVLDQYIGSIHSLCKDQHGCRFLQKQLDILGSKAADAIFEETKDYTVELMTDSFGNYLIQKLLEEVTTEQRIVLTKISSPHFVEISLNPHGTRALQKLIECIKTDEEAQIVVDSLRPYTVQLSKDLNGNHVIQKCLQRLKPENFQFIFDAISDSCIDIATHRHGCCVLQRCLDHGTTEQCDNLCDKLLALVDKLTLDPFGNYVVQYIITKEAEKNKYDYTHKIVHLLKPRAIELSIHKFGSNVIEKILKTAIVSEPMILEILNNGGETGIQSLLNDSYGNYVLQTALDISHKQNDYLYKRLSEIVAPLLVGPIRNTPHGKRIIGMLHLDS
Test: Mg; RNA-MaP; 20 mM Na-HEPES pH 7.4, 30 mM KOAc, 0.75 mM MgCl2, 0.1% Tween-20, 5% glycerol, 0.1 mg/mL BSA, 2 mM DTT; 25 C; 0.0125-409.6 nM protein
Details: tags: N-His6-TEV cleaved; C-SNAP kept, Cy3B-labelled; label: tethered on chip by stalled RNA polymerase

Row | Binder | Kd [nM]
1 | B1 | 2.14
2 | B2 | 5.14
3 | B3 | 4.86
4 | B4 | 1.94
5 | B5 | 1.95
6 | B6 | 1.38
7 | B7 | 3.49
8 | UCUCUUUGCAUUGUUAUCUCUU (ssRNA) [Ib_S1_P5E.1_K5.1_C5.1_H5.1_[T3C]_A5.1_[A7G]_F5.1_T5.1] | 2260
9 | B8 | 8.86
10 | B9 | 2.17
11 | B10 | 3
12 | B11 | 1.53
13 | B12 | 51.7
14 | B13 | 176
15 | B14 | 28.2
16 | B15 | 1.12
17 | B16 | 1
18 | B17 | 0.672
19 | UCUCUUUGCAUUUUUAUCUCUU (ssRNA) [Ib_S1_P5E.1_K5.1_C5.1_H5.1_[T3C]_A5.1_[A7T]_F5.1_T5.1] | 1540
20 | B18 | 0.445
21 | B19 | 538
22 | B20 | 23.8
23 | B21 | 416
24 | B22 | 500
25 | B23 | 1150

From publication PMC9352680, “A comprehensive thermodynamic model for RNA binding by the Saccharomyces cerevisiae Pumilio protein PUF4”
